T1: amphyphisin SH3 (AMPH_HUMAN), P49418
T1 chain: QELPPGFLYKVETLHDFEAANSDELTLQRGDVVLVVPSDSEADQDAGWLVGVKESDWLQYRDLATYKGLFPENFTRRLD

B1: Q9NRJ4 1023-1037 (peptide)
chain: VTQLPARPPPALYT
B2: Q04206 268-281 (peptide)
chain: VSMQLRRPSDRELS
B3: P54317 34-47 (peptide)
chain: WAGTLQRPVKLLPW
B4: Q96QH2 350-363 (peptide)
chain: VSVLPKRPRPAEFK
B5: AAH30267 1118-1132 (peptide)
chain: VYTPPPRPPPPWGS
B6: Q9H1V5 704-717 (peptide)
chain: WRRSLRRPDSRGRF
B7: Q9BZF1 153-166 (peptide)
chain: ASEIIERPSKKDGF
B8: Q96QH2 87-101 (peptide)
chain: VTDLPKKPPPPEVT
B9: Q9H4N5 254-267 (peptide)
chain: VTLLIYRPERNTKL
B10: Q9NV38 6-19 (peptide)
chain: SLLRPWRPLRARGS
B11: O14782 762-776 (peptide)
chain: WSQSPQRPPPSTTH
B12: P50548 338-351 (peptide)
chain: VVPQPQRPDKSPLP
B13: P42695 1464-1478 (peptide)
chain: SLSLPDKPPPQPQQ
B14: Q9P0K9 253-266 (peptide)
chain: VTSRFKRPVNVPRD
B15: P11229 442-455 (peptide)
chain: WRKIPKRPGSVHRT
B16: Q96DX2 170-184 (peptide)
chain: WGLLPFRPPRPLPV
B17: P10915 314-327 (peptide)
chain: VRYPISRPRRRSSP
B18: Q9NXY9 858-871 (peptide)
chain: VSHLIRRPISVNPN
B19: Q9UL14 222-236 (peptide)
chain: SLLSPLRPPGQRGL
B20: Q96SN6 144-157 (peptide)
chain: VVELPRRPAPPAAV
B21: P54198 312-325 (peptide)
chain: WLTSLKRPLVVIHE
B22: Q92794 305-318 (peptide)
chain: WISQISRPRKKGRK
B23: Q96JM3 305-318 (peptide)
chain: VSPEPRRPAPAVSP
B24: Q9BSQ9 205-218 (peptide)
chain: VSAALRRPGPSLVL
B25: O00255 515-529 (peptide)
chain: VSGPPRKPPGTVAG
B26: Q96N50 15-28 (peptide)
chain: WRYDLRRPSFTRTW
B27: Q9ULK5 218-231 (peptide)
chain: WALFFRRPKASLPR
B28: Q9HCY0 1434-1447 (peptide)
chain: VRSRFKRPKPNLAR
B29: Q15134 299-313 (peptide)
chain: VSYPPSKPPTYEEQ
B30: O94854 101-114 (peptide)
chain: WIPVLQRPSRTAAV
B31: Q96G29 26-39 (peptide)
chain: WLGSLRRPSLVHGY
B32: O94820 840-854 (peptide)
chain: VVPVPERPPEPRAM
B33: Q13545 27-40 (peptide)
chain: WGSLPARPRRPTPT
B34: Q12770 808-821 (peptide)
chain: SLTRIPRPGRQRRD
B35: O94991 330-344 (peptide)
chain: VYKPPLKPPKGTRQ
B36: Q9Y6A1 387-400 (peptide)
chain: VVSSPPRPVRHGDM
B37: O15211 317-331 (peptide)
chain: VTIRPLRPPQRARL
B38: Q96JP2 954-968 (peptide)
chain: VTSKPRKPPTPPEK
B39: Q9C0B8 71-85 (peptide)
chain: WGALPPRPPLLLLL
B40: Q9Y6W6 10-23 (peptide)
chain: VVVALSRPVRPQDL
B41: Q9NP08 303-316 (peptide)
chain: WPAGPRRPHRSSAS
B42: Q96QH2 111-125 (peptide)
chain: VTDLPKKPPPPEAT

Target: T1, amphyphisin SH3 (AMPH_HUMAN), P49418
Assay: SPOT array

Row | Binder | normalised SPOT signal, Boehringer light units (BLU); mean over the file's lines of this peptide
1 | B1 | 39.1
2 | B2 | 44.8
3 | B3 | 109
4 | B4 | 54.2
5 | B5 | 180
6 | B6 | 95.6
7 | B7 | 129
8 | B8 | 53
9 | B9 | 362
10 | B10 | 6960
11 | B11 | 73.9
12 | B12 | 64.7
13 | B13 | 57.9
14 | B14 | 32.8
15 | B15 | 48.9
16 | B16 | 4460
17 | B17 | 883
18 | B18 | 36.8
19 | B19 | 398
20 | B20 | 35.8
21 | B21 | 26.3

Row | Binder | normalised SPOT signal, Boehringer light units (BLU); mean over the file's lines of this peptide
22 | B22 | 190
23 | B23 | 233
24 | B24 | 34
25 | B25 | 61.2
26 | B26 | 140
27 | B27 | 194
28 | B28 | 37
29 | B29 | 56.5
30 | B30 | 2390
31 | B31 | 879
32 | B32 | 15.7
33 | B33 | 4730
34 | B34 | 817
35 | B35 | 80.6
36 | B36 | 2920
37 | B37 | 19300
38 | B38 | 157
39 | B39 | 42.8
40 | B40 | 465
41 | B41 | 7190
42 | B42 | 51.8

These binders were tested against endophilin SH3 (SH3G2_HUMAN), Q99962 (assay: SPOT array).

Row | Binder | normalised SPOT signal, Boehringer light units (BLU); mean over the file's lines of this peptide
43 | B1 | 1400
44 | B2 | 642
45 | B3 | 332
46 | B4 | 5850
47 | B5 | 4170
48 | B6 | 217
49 | B7 | 0.4
50 | B8 | 58.7
51 | B9 | 28.7
52 | B10 | 2400
53 | B11 | 557
54 | B12 | 279
55 | B13 | 59.6
56 | B14 | 33.4
57 | B15 | 573
58 | B16 | 3620
59 | B17 | 961
60 | B18 | 381
61 | B19 | 323
62 | B20 | 60.5
63 | B21 | 326

Row | Binder | normalised SPOT signal, Boehringer light units (BLU); mean over the file's lines of this peptide
64 | B22 | 452
65 | B23 | 10.4
66 | B24 | 0
67 | B25 | 63.4
68 | B26 | 628
69 | B27 | 1700
70 | B28 | 43.1
71 | B29 | 42.4
72 | B30 | 1300
73 | B31 | 2680
74 | B32 | 860
75 | B33 | 7230
76 | B34 | 294
77 | B35 | 782
78 | B36 | 2050
79 | B37 | 11400
80 | B38 | 1560
81 | B39 | 3390
82 | B40 | 0
83 | B41 | 4250
84 | B42 | 58
